Source: US20220242973A1 (Molecular Partners, published 2022)

Target: T1, Recombinant human FAP (fibroblast activation protein) (human, UniProt Q12884 26-760)
T1 construct: Bought soluble recombinant protein; Chemically biotinylated for the HTRF screen; also called hFAP; biotinylated human FAP
T1 sequence (looked up): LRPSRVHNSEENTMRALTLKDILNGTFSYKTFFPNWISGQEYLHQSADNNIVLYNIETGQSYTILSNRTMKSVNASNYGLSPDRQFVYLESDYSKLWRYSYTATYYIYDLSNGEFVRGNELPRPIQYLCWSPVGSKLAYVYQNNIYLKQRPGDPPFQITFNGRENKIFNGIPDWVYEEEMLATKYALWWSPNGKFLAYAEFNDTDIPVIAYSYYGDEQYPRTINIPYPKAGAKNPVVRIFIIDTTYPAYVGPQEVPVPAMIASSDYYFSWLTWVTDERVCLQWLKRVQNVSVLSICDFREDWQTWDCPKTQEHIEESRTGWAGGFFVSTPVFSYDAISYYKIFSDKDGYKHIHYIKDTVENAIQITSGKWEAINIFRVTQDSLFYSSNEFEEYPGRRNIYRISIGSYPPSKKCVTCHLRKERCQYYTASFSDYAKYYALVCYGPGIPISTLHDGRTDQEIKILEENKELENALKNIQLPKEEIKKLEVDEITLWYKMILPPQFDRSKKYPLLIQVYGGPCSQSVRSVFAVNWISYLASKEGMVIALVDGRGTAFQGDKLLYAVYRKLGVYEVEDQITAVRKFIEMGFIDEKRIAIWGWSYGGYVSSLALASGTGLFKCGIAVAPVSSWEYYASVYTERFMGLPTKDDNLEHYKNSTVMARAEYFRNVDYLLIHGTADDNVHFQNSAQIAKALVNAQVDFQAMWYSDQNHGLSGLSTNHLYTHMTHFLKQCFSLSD
Assay: SPR (ProteOn), human FAP immobilized on GLC chip
Protocol: Briefly, human FAP was diluted in 10 mM Na-acetate pH 5.3 buffer and covalently immobilized on a GLC chip (BioRad) to a level of around 2000 resonance units (RU). The interaction of ankyrin repeat protein and hFAP was then measured by injecting 200 μl running buffer (PBS, pH 7.4 containing 0.005% Tween 20®) containing serial dilutions of ankyrin repeat proteins covering a concentration range between 30 nM and 0.5 nM (on-rate measurement), followed by a running buffer flow for at least 25 minutes at a constant flow rate of 100 μl/min (off-rate measurement). The regeneration was performed using 15 μl of 10 mM Glycine pH 2 followed by 15 μl of 124 mM H₃PO₄. […] Based on the SPR traces obtained from the on-rate and off-rate measurements, the on- and off-rate of the corresponding ankyrin repeat protein—FAP interaction was determined.
Briefly, mouse FAP was diluted in 10 mM Na-acetate pH5.3 buffer and covalently immobilized on a GLC chip (BioRad) to a level of around 2000 resonance units (RU). The interaction of DARPin® protein #41 and mFAP was then measured by injecting 200 μl running buffer (PBS, pH7.4 containing 0.005% Tween20®) containing serial dilutions of DARPin® protein #41 covering a concentration range between 50 nM and 3 nM (on-rate measurement), followed by a running buffer flow for 30 minutes at a constant flow rate of 100 μl/min (off-rate measurement). […]

B1: DARPin® protein #41 (designed binder)
chain: MRGSHHHHHHGSDLGKKLLEAARAGQDDEVRELLKAGADVNAKDYFSHTPLHLAARNGHLKIVEVLLKAGADVNAKDFAGKTPLHLAANEGHLEIVEVLLKAGADVNAQDIFGKTPADIAADAGHEDIAEVLQKAAGSPTPTPTTPTPTPTTPTPTPTGSDLGEKLLVAALYGQDDEVRILLAAGADVNAKDQWGLTPLHKAALQGHLEIVEVLLKAGADVNAKDERGHTPLHWAARFGHLEIVEVLLKAGADVNAQDQKGYTPADLAALWGHEDIAEVLQKAA
notes: Fusion of a serum albumin-specific and a FAP-specific ankyrin repeat domain
- Kd: 0.264 nM
